In EP1876240B1:

Tests used:
[1] = biological target: rat GPVI-human Fc (rGPVI-hFc) (rat; mouse); experiment: ELISA on immobilized antigen; control
[2] = biological target: human GPVI extracellular region-human Fc fusion protein (hGPVI-hFc) (human); experiment: ELISA on immobilized antigen; control
human GPVI extracellular region-human Fc fusion protein (hGPVI-hFc) (human), sequence (chain, as listed by the source limits assumed, form in doubt): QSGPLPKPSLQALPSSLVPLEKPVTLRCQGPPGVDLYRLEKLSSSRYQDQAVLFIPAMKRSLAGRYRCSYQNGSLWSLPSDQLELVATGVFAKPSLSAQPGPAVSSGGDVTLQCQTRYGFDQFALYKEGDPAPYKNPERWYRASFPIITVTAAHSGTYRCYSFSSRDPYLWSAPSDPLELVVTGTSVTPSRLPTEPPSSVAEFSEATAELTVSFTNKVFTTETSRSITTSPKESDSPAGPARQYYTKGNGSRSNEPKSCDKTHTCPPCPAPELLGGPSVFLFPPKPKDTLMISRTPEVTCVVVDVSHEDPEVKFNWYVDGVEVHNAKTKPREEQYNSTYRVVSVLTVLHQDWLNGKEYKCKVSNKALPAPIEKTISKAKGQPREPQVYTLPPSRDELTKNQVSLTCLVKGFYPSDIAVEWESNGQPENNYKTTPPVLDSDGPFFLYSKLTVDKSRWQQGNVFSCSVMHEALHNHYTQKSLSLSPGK

Question: How did the absorbance (ELISA) [1] turn out when Normal Mouse IgG (antibody) was run?
Answer: 0.123

Question: What about the absorbance (ELISA) [2] of the same substance?
Answer: 0.026
